Source: article PMC6980832, “Crystal structures of Triosephosphate Isomerases from Taenia solium and Schistosoma mansoni provide insights for vaccine rationale and drug design against helminth parasites” (PLoS Neglected Tropical Diseases, 2020)

Key:
[1] = molecular target: the molecule itself; experiment: SEC; gel filtration elution profile of wild-type and point mutants of SmTPI; conditions not shown
[2] = molecular target: the molecule itself; experiment: crystal structure; sitting drop; protein 20 mg/ml incubated with 10 mM 2-phosphoglyceric acid in storage buffer; homodimer seen in the crystal

Protein	stoichiometry N [1]	binding result [2]
Triosephosphate isomerase from Schistosoma mansoni (enzyme, three additional amino acids (Gly, Pro, His) before the initial methionine, left from the modified pET19 vector; triosephosphate isomerase, Schistosoma mansoni, XP_018647623; all 253 amino acids visible in the crystal structure; also called SmTPI; wild-type SmTPI; source: E. coli strain devoid of its endogenous triosephosphate isomerase gene, purified (two purification steps)) GPHMSGSRKFFVGGNWKMNGSRDDNDKLLKLLSEAHFDDNTEVLIAPPSVFLHEIRKSLKKEIHVAAQNCYKVSKGAFTGEISPAMIRDIGCDWVILGHSERRNIFGESDELIAEKVQHALAEGLSVIACIGETLSERESNKTEEVCVRQLKAIANKIKSADEWKRVVVAYEPVWAIGTGKVATPQQAQEVHNFLRKWFKTNAPNGVDEKIRIIYGGSVTAANCKELAQQHDVDGFLVGGASLKPEFTEICKARQR	2	
Triosephosphate isomerase from Taenia solium (enzyme, three additional amino acids (Gly, Pro, His) before the initial methionine, left from the modified pET19 vector; triosephosphate isomerase, Taenia solium, GenBank AAG21132.1; all 250 amino acids visible in the crystal structure; also called TsTPI; source: E. coli strain devoid of its endogenous triosephosphate isomerase gene, purified (two purification steps)) GPHMTRKLFVGGNWKMNGSYSHINTFFDTLQKADTDPNADIVIGVPACYLKYAQDKAPKGIKIAAENCYKVGSGAFTGEISTEMIKDCGCEWVILGHSERRHIFGESNELIGEKVKHALDSGLNVIPCIGELLSEREAGKTNDVCFAQMDAIAKNVPSKEAWDKVVIAYEPVWAIGTGKTATPAQAQEVHKVVRDWIRKHVDAGIADKVRILYGGSVTASNAKDLGTQPDVDGFLVGGASLKPDFITIINARR		binds
